The record followed here is US7407655.

B1: PF4 (ligand, human, UniProt P02776 32-101, looked up)
chain: EAEEDGDLQCLCVKTTSQVRPRHITSLEVIKAGPHCPTAQLIATLKNGRKICLDLQAPLYKKIIKKLLES
B2: NAP-2 (ligand, human, UniProt P02775 59-128, looked up)
chain: AELRCMCIKTTSGIHPKNIQSLEVIGKGTHCNQVEVIATLKDGRKICLDPDAPRIKKIVQKKLAGDESAD
B3: I309 (ligand, human, UniProt P22362 24-96, looked up)
chain: KSMQVPFSRCCFSFAEQEIPLRAILCYRNTSSICSNEGLIFKLKRGKEACALDTVGWVQRHRKMLRHCPSKRK

This test deals with human CXC Chemokine Receptor 3 (CXCR3) (human) (UniProt P49682). Description: cell-based or functional assay.
human CXC Chemokine Receptor 3 (CXCR3) (human), sequence (P49682 whole entry): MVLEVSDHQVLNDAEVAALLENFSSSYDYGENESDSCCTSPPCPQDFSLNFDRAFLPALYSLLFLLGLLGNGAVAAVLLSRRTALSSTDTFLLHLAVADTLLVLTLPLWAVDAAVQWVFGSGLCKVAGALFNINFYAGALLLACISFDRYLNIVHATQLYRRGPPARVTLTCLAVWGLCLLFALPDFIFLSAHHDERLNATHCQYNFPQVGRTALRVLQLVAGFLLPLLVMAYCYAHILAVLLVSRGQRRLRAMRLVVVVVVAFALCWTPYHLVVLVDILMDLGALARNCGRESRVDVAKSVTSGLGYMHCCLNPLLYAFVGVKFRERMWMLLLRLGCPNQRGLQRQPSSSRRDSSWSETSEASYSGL
On to “MIP-1α (from UniProt P10147 24-92) (ligand)”, for which the [Ca^2+]i changes in IP-10/MigR transfectants was more than 100 nM.
The molecule “eotaxin (from UniProt P51671 24-97) (ligand)” gave a [Ca^2+]i changes in IP-10/MigR transfectants of more than 100 nM.
Regarding “MCP-1 (from UniProt P13500 24-99) (ligand)”, the [Ca^2+]i changes in IP-10/MigR transfectants is more than 100 nM.
In turn, “MCP-2 (from UniProt P80075 24-99) (ligand)” registered a [Ca^2+]i changes in IP-10/MigR transfectants of more than 100 nM.
With “IL-8 (from UniProt P10145 28-99) (ligand)” the figure was more than 100 nM; with “lymphotactin (from UniProt P47992 22-114) (ligand)”, more than 100 nM; with “MIP-1β (from UniProt P13236 24-92) (ligand)”, more than 100 nM.
With “MCP-3 (from UniProt P80098 24-99) (ligand)” the figure was more than 100 nM; with “MCP-4 (from UniProt Q99616 24-98) (ligand)”, more than 100 nM.
“GROα (from UniProt P09341 35-107) (ligand)” returned a [Ca^2+]i changes in IP-10/MigR transfectants of more than 100 nM.
With “GCP-2 (from UniProt P80162 38-114) (ligand)” the figure was more than 100 nM; with “RANTES (from UniProt P13501 24-91) (ligand)”, more than 100 nM; with “ENA78 (from UniProt P42830 37-114) (ligand)”, more than 100 nM.
With B1 the figure was more than 100 nM.
With B2 the figure was more than 100 nM; with B3, more than 100 nM.
